The source of these data is US20260184765A1 (INVENRA, published 2026).

The target in the experiment is CTLA4 (UniProt P16410 36-161, limits assumed). Put plainly: Octet BLI, antigen immobilized, B-Body as analyte. An excerpt: In each instance, the antigen is immobilized and the B-Body is the analyte.
Background: Biolayer interferometry detects binding as a change in optical thickness at a sensor tip.

CTLA4, sequence (P16410 36-161 limits assumed): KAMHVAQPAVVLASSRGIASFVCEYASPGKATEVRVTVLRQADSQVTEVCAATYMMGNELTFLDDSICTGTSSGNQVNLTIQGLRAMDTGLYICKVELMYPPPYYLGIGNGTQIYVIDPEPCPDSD

B1: bivalent bispecific B-Body "BC1" (bispecific antibody)
chain 1: not shown
chain 2: EVQLVESGGGLVQPGGSLRLSCAASGFTFSDYDIHWVRQAPGKGLEWVGDITPYDGTTNYADSVKGRFTISADTSKNTAYLQMNSLRAEDTAVYYCARLVGEIATGFDYWGQGTLVTVSSASPREPQVYTDPPSRDELTKNQVSLTCLVKGFYPSDIAVEWESNGQPENNYKTTPPVLDSDGSFFLYSKLTVDKSRWQQGNVFSCSVMHEALHNHYTQKSLSLSGEC
chain 3: not shown
chain 4: QVQLVESGGGVVQPGRSLRLDCKASGITFSNSGMHWVRQAPGKGLEWVAVIWYDGSKRYYADSVKGRFTISRDNSKNTLFLQMNSLRAEDTAVYYCATNDDYWGQGTLVTVSSASTKGPSVFPLAPSSKSTSGGTAALGCLVKDYFPEPVTVSWNSGALTSGVHTFPAVLQSSGLYSLSSVVTVPSSSLGTQTYICNVNHKPSNTKVDKKVEPPKSC
notes: Specific for PD1 (nivolumab variable regions) and Antigen A; four different chains, one of each; also called bivalent 1×1 bispecific construct BC1
Turning to B1, the binding result is “no binding”.
